This is an account of results in patent publication US20250019439A1 (Adimab, published 2025).

The term Kd denotes the equilibrium constant for the complex coming apart. A high value points to weaker binding.

Experiment [1] addresses T1, ADI-26941 Fab.
T1 construct: anti-CD3 Fab by papain digestion of the IgG
Description: BLI; tip ADI-34134 IgG, solution anti-CD3 Fab. As for the experimental part:
(§1) ForteBio affinity measurements were performed generally as previously described (Estep et al., MAbs. 2013 5(2):270-8). Briefly, ForteBio affinity measurements were performed by loading antibody IgG or Fabs on-line onto AHC sensors. Sensors were equilibrated off-line in assay buffer for 30 minutes and then monitored on-line for 60 seconds for baseline establishment. For avid binding measurement, sensors with loaded antibodies were exposed to IgG or Fab solutions for 3 minutes, afterwards they were transferred to assay buffer for 3 minutes for off-rate measurement. Kinetics data were fit using a 1:1 binding model in the data analysis software provided by ForteBio to obtain equilibrium dissociation constant (KD=koff/kₒₙ) values. In each column, tip-immobilized antibodies are listed first and solution antibodies second.
(§2) CTL-19613 is an IgG1 antibody prepared with anti-CD3 variable domains corresponding with those of clone 12C described in United States Publication Number US 2010/0183615 (e.g., see paragraphs 469-479 and FIG. 25 thereof), which also make up the CD3 binding domain of the bispecific antibody pasotuxizumab. […] In each column, tip-immobilized antibodies are listed first and solution antibodies second.
In general terms: BLI is a label-free optical method that tracks binding on a fibre tip over time.

The target in experiment [2] is T2, ADI-22523 Fab.
T2 construct: anti-CD3 Fab by papain digestion of the IgG
T2 sequence (VH, as listed by the source limits assumed, chain 1 of 2): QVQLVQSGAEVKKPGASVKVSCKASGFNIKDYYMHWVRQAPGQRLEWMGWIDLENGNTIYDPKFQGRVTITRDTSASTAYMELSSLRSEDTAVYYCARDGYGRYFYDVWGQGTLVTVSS
T2 sequence (VL, as listed by the source limits assumed, chain 2 of 2): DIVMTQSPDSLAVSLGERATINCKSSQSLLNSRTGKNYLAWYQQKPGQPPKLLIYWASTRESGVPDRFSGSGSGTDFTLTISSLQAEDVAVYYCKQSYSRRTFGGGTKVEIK
The experiment is described as follows: BLI; tip ADI-34134 IgG, solution anti-CD3 Fab. As for the experimental part:
as §1, §2

For experiment [3], the target named is T3, ADI-26921 Fab.
T3 construct: anti-CD3 Fab by papain digestion of the IgG
T3 sequence (VH, as listed by the source limits assumed, chain 1 of 2): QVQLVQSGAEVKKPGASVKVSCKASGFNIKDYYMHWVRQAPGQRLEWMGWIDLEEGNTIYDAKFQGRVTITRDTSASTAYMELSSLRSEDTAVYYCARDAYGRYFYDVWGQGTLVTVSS
T3 sequence (VL, as listed by the source limits assumed, chain 2 of 2): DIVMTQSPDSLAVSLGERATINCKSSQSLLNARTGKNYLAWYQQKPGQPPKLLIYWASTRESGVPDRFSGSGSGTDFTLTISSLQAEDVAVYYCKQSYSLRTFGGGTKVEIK
The experiment is described as follows: BLI; tip ADI-34134 IgG, solution anti-CD3 Fab. The procedure:
as §1, §2

Experiment [4] deals with T4, ADI-26916 Fab.
T4 construct: anti-CD3 Fab by papain digestion of the IgG
T4 sequence (VH, as listed by the source, chain 1 of 2): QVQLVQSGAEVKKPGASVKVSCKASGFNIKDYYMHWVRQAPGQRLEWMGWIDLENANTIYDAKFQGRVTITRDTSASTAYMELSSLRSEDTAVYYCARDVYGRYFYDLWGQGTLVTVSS
T4 sequence (VL, as listed by the source, chain 2 of 2): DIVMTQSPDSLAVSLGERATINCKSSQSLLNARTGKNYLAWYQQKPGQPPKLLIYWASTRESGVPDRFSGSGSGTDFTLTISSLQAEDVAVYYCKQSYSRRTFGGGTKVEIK
The experiment is described as follows: BLI; tip ADI-34134 IgG, solution anti-CD3 Fab. As for the experimental part:
as §1, §2

For experiment [5], the target named is T5, ADI-26906 Fab.
T5 construct: anti-CD3 Fab by papain digestion of the IgG
T5 sequence (VH, as listed by the source limits assumed, chain 1 of 2): as the sequence (VH, as listed by the source, chain 1 of 2) above, with V100A, L108V counted along it
T5 sequence (VL, as listed by the source limits assumed, chain 2 of 2): as the sequence (VL, as listed by the source, chain 2 of 2) above
The experiment is described as follows: BLI; tip ADI-34134 IgG, solution anti-CD3 Fab. As for the experimental part: as §1, §2

In experiment [6] the target is T6, CTL-19613 Fab.
T6 construct: anti-CD3 Fab by papain digestion of the IgG1
The experiment is described as follows: BLI; tip ADI-34134 IgG, solution anti-CD3 Fab. As for the experimental part:
as §1, §2

Experiment [7] concerns the target T7, ADI-26928 Fab.
T7 construct: anti-CD3 Fab by papain digestion of the IgG
Description: BLI; tip ADI-34134 IgG, solution anti-CD3 Fab. As for the experimental part:
as §1, §2

The target in experiment [8] is T8, ADI-26913 Fab.
T8 construct: anti-CD3 Fab by papain digestion of the IgG
T8 sequence (VH, as listed by the source limits assumed, chain 1 of 2): as the sequence (VH, as listed by the source, chain 1 of 2) above, with V100Q, L108V counted along it
T8 sequence (VL, as listed by the source limits assumed, chain 2 of 2): as the sequence (VL, as listed by the source, chain 2 of 2) above
The experiment is described as follows: BLI; tip ADI-34134 IgG, solution anti-CD3 Fab. As for the experimental part:
as §1, §2

Experiment [9] has as its target T9, ADI-26920 Fab.
T9 construct: anti-CD3 Fab by papain digestion of the IgG
The experiment is described as follows: BLI; tip ADI-34134 IgG, solution anti-CD3 Fab. The procedure: as §1, §2

Experiment [10] concerns the target T10, ADI-26927 Fab.
T10 construct: anti-CD3 Fab by papain digestion of the IgG
Description: BLI; tip ADI-34134 IgG, solution anti-CD3 Fab. As for the experimental part:
as §1, §2

For experiment [11], the target named is T11, ADI-26927 anti-CD3 bsIgG.
T11 construct: anti-HER2 IgG with one Fab arm replaced by the anti-CD3 scFv (printed 'Vx-VH', read as VL-VH); S354C and Y349C mutations; also called anti-CD3 bsIgG (ADI-26927 scFv); not shown: scFv linker; anti-HER2 Fab arm (heavy and light chain); hinge and Fc with S354C/Y349C
T11 sequence (VH, as listed by the source limits assumed, chain 1 of 2): as the sequence (VH, as listed by the source, chain 1 of 2) above, with N55E, A56G, V100R, R103A, L108V counted along it
T11 sequence (VL, as listed by the source limits assumed, chain 2 of 2): as the sequence (VL, as listed by the source, chain 2 of 2) above, with R100L counted along it
The experiment is described as follows: BLI; tip anti-CD3 bsIgG, solution ADI-34134 IgG. The procedure:
as §1
(§3) Additional analysis was conducted using bispecific antibody formats incorporating anti-CD3 antibody variable domains. Bispecific antibodies were prepared using standard IgG formats (bsIgG) with replacement of Fab arms with anti-CD3 scFvs in Vx-VH orientation and with S354C and Y349C mutations for disulfide stabilization. Antibodies used for Fab arm replacement were anti-HER2 IgG antibodies, with one Fab arm from each replaced by a scFv corresponding to a different anti-CD3 antibody. […] In each column, tip-immobilized antibodies are listed first and solution antibodies second. Anti-CD3 antibodies associated with incorporated scFvs are listed by antibody number.

Experiment [12] deals with T12, ADI-26920 anti-CD3 bsIgG.
T12 construct: anti-HER2 IgG with one Fab arm replaced by the anti-CD3 scFv (printed 'Vx-VH', read as VL-VH); S354C and Y349C mutations; also called anti-CD3 bsIgG (ADI-26920 scFv); not shown: scFv linker; anti-HER2 Fab arm (heavy and light chain); hinge and Fc with S354C/Y349C
T12 sequence (VH, as listed by the source limits assumed, chain 1 of 2): as the sequence (VH, as listed by the source, chain 1 of 2) above, with A97G, V100A, L108V counted along it
T12 sequence (VL, as listed by the source limits assumed, chain 2 of 2): as the sequence (VL, as listed by the source, chain 2 of 2) above, with R100L counted along it
The experiment is described as follows: BLI; tip anti-CD3 bsIgG, solution ADI-34134 IgG. The procedure: as §1, §3

For experiment [13], the target named is T13, ADI-26916 anti-CD3 bsIgG.
T13 construct: anti-HER2 IgG with one Fab arm replaced by the anti-CD3 scFv (printed 'Vx-VH', read as VL-VH); S354C and Y349C mutations; also called anti-CD3 bsIgG (ADI-26916 scFv); not shown: scFv linker; anti-HER2 Fab arm (heavy and light chain); hinge and Fc with S354C/Y349C; copies: 1 + 1
T13 sequence (VH, as listed by the source limits assumed, chain 1 of 2): as the sequence (VH, as listed by the source, chain 1 of 2) above
T13 sequence (VL, as listed by the source limits assumed, chain 2 of 2): as the sequence (VL, as listed by the source, chain 2 of 2) above
Description: BLI; tip anti-CD3 bsIgG, solution ADI-34134 IgG. The procedure: as §1, §3

Experiment [14] deals with T14, CTL-19613 anti-CD3 bsIgG (In the assay the two domains were one scFv (VL-VH orientation, linker not given). It replaced one Fab arm of an anti-HER2 IgG; S354C and Y349C mutations are stated for disulfide stabilization.).
T14 construct: anti-HER2 IgG with one Fab arm replaced by the anti-CD3 scFv (printed 'Vx-VH', read as VL-VH); S354C and Y349C mutations; also called anti-CD3 bsIgG (CTL-19613 scFv); not shown: scFv linker between VL and VH; anti-HER2 heavy and light chains of the other arm; hinge and Fc (with S354C / Y349C)
The experiment is described as follows: BLI; tip anti-CD3 bsIgG, solution ADI-34134 IgG. The procedure: as §1, §3

T7 sequence (VH, as listed by the source limits assumed, chain 1 of 2): as the sequence (VH, as listed by the source, chain 1 of 2) above, with N55E, A56G, A97G, V100A, R103L, L108V counted along it
T7 sequence (VL, as listed by the source limits assumed, chain 2 of 2): as the sequence (VL, as listed by the source, chain 2 of 2) above, with R100L counted along it
T10 sequence (VH, as listed by the source limits assumed, chain 1 of 2): as the sequence (VH, as listed by the source, chain 1 of 2) above, with N55E, A56G, V100R, R103A, L108V counted along it
T10 sequence (VL, as listed by the source limits assumed, chain 2 of 2): as the sequence (VL, as listed by the source, chain 2 of 2) above, with R100L counted along it
T9 sequence (VH, as listed by the source limits assumed, chain 1 of 2): as the sequence (VH, as listed by the source, chain 1 of 2) above, with A97G, V100A, L108V counted along it
T9 sequence (VL, as listed by the source limits assumed, chain 2 of 2): as the sequence (VL, as listed by the source, chain 2 of 2) above, with R100L counted along it
T1 sequence (VH, as listed by the source limits assumed, chain 1 of 2): as the sequence (VH, as listed by the source, chain 1 of 2) above, with N55E, A56G, V100Q, L108V counted along it
T1 sequence (VL, as listed by the source limits assumed, chain 2 of 2): as the sequence (VL, as listed by the source, chain 2 of 2) above, with R100I counted along it

B1: ADI-34134 IgG (antibody, V domains shown)
VH: QVQLVQSGAEVKKPGSSVKVSCKASGGTFSSYAISWVRQAPGQGLEWMGGIIPIFGTANYAQKFQGRVTITADESTSTAYMELSSLRSEDTAVYYCARGAPNYYGSGGYDDGWFDPWGQGTLVTVSS
VL: EIVLTQSPGTLSLSPGERATLSCRASQSVSSDYLAWYQQKPGQAPRLLIYGASSRATGIPDRFSGSGSGTDFTLTISRLEPEDFAVYYCQQFGRVPTFGGGTKVEIK
As for B1, the Kd in experiment [1] was 112 nM; in experiment [2], 4.46 nM; in [3] it was 92.7 nM; in experiment [4] it was 110 nM; in experiment [5], 36 nM; in experiment [7], 182 nM. Moreover, the Kd in [8] was 86.5 nM; in experiment [9], 29.8 nM; in experiment [10] it was 25.6 nM; in experiment [11], 1.02 nM; in experiment [12], 0.47 nM; in experiment [13], 1.94 nM. In addition, the binding result in experiment [6] and in [14] was “no binding” throughout.
